# According to article PMC2892007:
# What was measured:
# [1] = target: Gelatin-binding domain of human plasma fibronectin (human); assay: SEC-MALS; mixtures of Lig protein and GBD on Superose 6, 20 mM HEPES, 150 mM NaCl, pH 7.5
# [2] = target: Gelatin-binding domain of human plasma fibronectin (human); assay: ITC; GBD in the cell (1 ml), Lig protein in the syringe (250 µl), 25 injections of 10 µl, 25°C, Tris buffer with 100 µM CaCl2; independent binding model
# [3] = target: Gelatin-binding domain of human plasma fibronectin (human); assay: ELISA
# [4] = target: LigBCen9 (Leptospira; L. interrogans serovar Pomona is the only strain named); assay: SPR
# [5] = target: LigAVar12 (Leptospira; L. interrogans serovar Pomona is the only strain named); assay: SPR
# [6] = target: LigBCen7'-8 (Leptospira; L. interrogans serovar Pomona is the only strain named); assay: SPR
# [7] = target: Alexa-488 labeled LigBCen2RW1073C (Leptospira; L. interrogans serovar Pomona is the only strain named); assay: other fluorescence titration
# [8] = target: LigA LigAVar13 (Leptospira interrogans) (UniProt Q72MA6); assay: SPR
# [9] = target: LigA LigAVar7'-8 (Leptospira interrogans) (UniProt Q72MA6); assay: SPR
# [10] = target: LigA LigAVar10 (Leptospira interrogans) (UniProt Q72MA6); assay: SPR
# [11] = target: LigA LigAVar12 (Leptospira interrogans) (UniProt Q72MA6); assay: SPR
# [12] = target: LigA LigAVar11 (Leptospira interrogans) (UniProt Q72MA6); assay: SPR
# [13] = target: LigA LigAVar13 (Leptospira interrogans) (UniProt Q72MA6); assay: ELISA
# [14] = target: LigA LigAVar10 (Leptospira interrogans) (UniProt Q72MA6); assay: ELISA
# Sequence of Fibronectin gelatin binding domain (P02751 306-608): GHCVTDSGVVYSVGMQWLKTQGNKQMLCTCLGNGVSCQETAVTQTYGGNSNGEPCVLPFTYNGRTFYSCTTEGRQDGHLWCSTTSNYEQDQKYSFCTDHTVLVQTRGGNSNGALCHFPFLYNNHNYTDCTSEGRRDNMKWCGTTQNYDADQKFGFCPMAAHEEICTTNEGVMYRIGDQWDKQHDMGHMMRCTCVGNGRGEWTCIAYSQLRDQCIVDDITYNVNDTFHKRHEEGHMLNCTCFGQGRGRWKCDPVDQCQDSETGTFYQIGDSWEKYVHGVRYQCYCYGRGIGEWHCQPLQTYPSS
Substance,stoichiometry N [1],1/n [2],Kd [2],dH [2],stoichiometry N [2],Kd [3],further results
LigBCen7'-10 (domain or fragment),2 GBD: Lig,1.96 GBD: Lig,1350 nM,-26.7 kcal/mol,0.51 Lig: GBD,1460 nM,–
LigBCen7'-11 (domain or fragment),1.98 GBD: Lig,2.08 GBD: Lig,1390 nM,-29 kcal/mol,0.479 Lig: GBD,1470 nM,–
LigAVar7'-10 (domain or fragment),2 GBD: Lig,1.96 GBD: Lig,4350 nM,-25.3 kcal/mol,0.51 Lig: GBD,4720 nM,–
LigBCen7'-8 (domain or fragment),1.01 GBD: Lig,1.01 GBD: Lig,2280 nM,-20.4 kcal/mol,0.985 Lig: GBD,–,–
Gelatin-binding domain of human plasma fibronectin (domain or fragment),–,–,–,–,–,–,koff [4]: 0.00473 s⁻¹; kon [4]: 560 M⁻¹ s⁻¹; koff [5]: 0.00678 s⁻¹; kon [5]: 2360 M⁻¹ s⁻¹; koff [6]: 0.00963 s⁻¹; kon [6]: 3570 M⁻¹ s⁻¹; Kd [7]: 1930 nM
LigAVar7'-9 (domain or fragment),0.97 GBD: Lig,0.98 GBD: Lig,6110 nM,-29.2 kcal/mol,1.02 Lig: GBD,6580 nM,–
LigAVar7'-13 (domain or fragment),5.05 GBD: Lig,4.92 GBD: Lig,47 nM,-94.9 kcal/mol,0.203 Lig: GBD,48 nM,–
LigAVar7'-12 (domain or fragment),4.04 GBD: Lig,3.92 GBD: Lig,2410 nM,-30.8 kcal/mol,0.255 Lig: GBD,2440 nM,–
LigBCen7'-9 (domain or fragment),2.05 GBD: Lig,1.92 GBD: Lig,1310 nM,-21.1 kcal/mol,0.52 Lig: GBD,1390 nM,–
Fibronectin gelatin binding domain (from UniProt P02751),–,–,–,–,–,–,Kd [8]: 10400 nM; Kd [9]: 6680 nM; Kd [10]: 4250 nM; Kd [11]: 2870 nM; Kd [12]: 5040 nM; Kd [13]: 11000 nM; Kd [14]: 3940 nM
LigAVar7'-11 (domain or fragment),2.96 GBD: Lig,2.98 GBD: Lig,3130 nM,-22.1 kcal/mol,0.335 Lig: GBD,3240 nM,–
